Reference: US20210139548A1 (published 2021)
*1 amine or outer side, *2 acyl side, *3 side chain or, on linkers, in order; H or OH if unused. Side-chain parts run from the residue outwards. The star is where a group is joined. C18 diacid = O=C(O)CCCCCCCCCCCCCCCCC(=O)*; γGlu = O=C(O)[C@H](CCC(=O)[*:2])N[*:1]; Isovaleryl = CC(C)CC(=O)*; AEEA = NCCOCCOCC(=O)O

Target: T1, human neuropeptide Y2 receptor (human, UniProt P49146 1-381)
T1 construct: whole, on cells; also called hNPY2 receptor; hNPY2-R
T1 sequence (looked up): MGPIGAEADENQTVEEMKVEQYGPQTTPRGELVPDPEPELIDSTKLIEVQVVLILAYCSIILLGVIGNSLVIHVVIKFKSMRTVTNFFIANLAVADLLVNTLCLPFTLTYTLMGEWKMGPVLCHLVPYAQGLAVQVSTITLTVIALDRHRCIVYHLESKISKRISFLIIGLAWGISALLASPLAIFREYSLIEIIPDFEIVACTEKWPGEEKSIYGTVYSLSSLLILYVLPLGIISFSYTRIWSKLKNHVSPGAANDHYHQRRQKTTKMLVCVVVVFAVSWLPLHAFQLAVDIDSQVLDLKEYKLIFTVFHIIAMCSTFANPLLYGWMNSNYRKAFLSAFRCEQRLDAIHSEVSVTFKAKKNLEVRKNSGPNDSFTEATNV
Experiment: radioligand competition (125I-PYY(1-36)), hNPY2R membranes
Procedure, shortened: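 Commercial human Y2 receptor membranes (0.5 μg protein/well) were incubated with peptide for 2 h at room temperature in 50 mM HEPES, 5 mM MgCl₂, 1 mM CaCl₂, pH 7.4, with 0.2% ovalbumin. Bound radioligand was separated on PEI-soaked GF/C filters and counted by scintillation, and IC₅₀ came from nonlinear sigmoidal regression.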

B1: Compound 176 (peptide)
peptide: Isovaleryl-APEK([AEEA-AEEA-γGlu-C18 diacid])PEEDASEEELQRYYVSLRHYYNWLTRQRY-NH2
SMILES: CC(C)CC(=O)N[C@@H](C)C(=O)N1CCC[C@H]1C(=O)N[C@@H](CCC(=O)O)C(=O)N[C@@H](CCCCNC(=O)COCCOCCNC(=O)COCCOCCNC(=O)CC[C@H](NC(=O)CCCCCCCCCCCCCCCCC(=O)O)C(=O)O)C(=O)N1CCC[C@H]1C(=O)N[C@@H](CCC(=O)O)C(=O)N[C@@H](CCC(=O)O)C(=O)N[C@@H](CC(=O)O)C(=O)N[C@@H](C)C(=O)N[C@@H](CO)C(=O)N[C@@H](CCC(=O)O)C(=O)N[C@@H](CCC(=O)O)C(=O)N[C@@H](CCC(=O)O)C(=O)N[C@@H](CC(C)C)C(=O)N[C@@H](CCC(N)=O)C(=O)N[C@@H](CCCNC(=N)N)C(=O)N[C@@H](Cc1ccc(O)cc1)C(=O)N[C@@H](Cc1ccc(O)cc1)C(=O)N[C@H](C(=O)N[C@@H](CO)C(=O)N[C@@H](CC(C)C)C(=O)N[C@@H](CCCNC(=N)N)C(=O)N[C@@H](Cc1c[nH]cn1)C(=O)N[C@@H](Cc1ccc(O)cc1)C(=O)N[C@@H](Cc1ccc(O)cc1)C(=O)N[C@@H](CC(N)=O)C(=O)N[C@@H](Cc1c[nH]c2ccccc12)C(=O)N[C@@H](CC(C)C)C(=O)N[C@H](C(=O)N[C@@H](CCCNC(=N)N)C(=O)N[C@@H](CCC(N)=O)C(=O)N[C@@H](CCCNC(=N)N)C(=O)N[C@@H](Cc1ccc(O)cc1)C(N)=O)[C@@H](C)O)C(C)C
- Ki: 3.05 nM

B2: Compound 177 (peptide)
peptide: Isovaleryl-APEK([AEEA-AEEA-γGlu-C18 diacid])PEEDSSPEELQRYYVELRHYYNWLTRQRY-NH2
SMILES: CC(C)CC(=O)N[C@@H](C)C(=O)N1CCC[C@H]1C(=O)N[C@@H](CCC(=O)O)C(=O)N[C@@H](CCCCNC(=O)COCCOCCNC(=O)COCCOCCNC(=O)CC[C@H](NC(=O)CCCCCCCCCCCCCCCCC(=O)O)C(=O)O)C(=O)N1CCC[C@H]1C(=O)N[C@@H](CCC(=O)O)C(=O)N[C@@H](CCC(=O)O)C(=O)N[C@@H](CC(=O)O)C(=O)N[C@@H](CO)C(=O)N[C@@H](CO)C(=O)N1CCC[C@H]1C(=O)N[C@@H](CCC(=O)O)C(=O)N[C@@H](CCC(=O)O)C(=O)N[C@@H](CC(C)C)C(=O)N[C@@H](CCC(N)=O)C(=O)N[C@@H](CCCNC(=N)N)C(=O)N[C@@H](Cc1ccc(O)cc1)C(=O)N[C@@H](Cc1ccc(O)cc1)C(=O)N[C@H](C(=O)N[C@@H](CCC(=O)O)C(=O)N[C@@H](CC(C)C)C(=O)N[C@@H](CCCNC(=N)N)C(=O)N[C@@H](Cc1c[nH]cn1)C(=O)N[C@@H](Cc1ccc(O)cc1)C(=O)N[C@@H](Cc1ccc(O)cc1)C(=O)N[C@@H](CC(N)=O)C(=O)N[C@@H](Cc1c[nH]c2ccccc12)C(=O)N[C@@H](CC(C)C)C(=O)N[C@H](C(=O)N[C@@H](CCCNC(=N)N)C(=O)N[C@@H](CCC(N)=O)C(=O)N[C@@H](CCCNC(=N)N)C(=O)N[C@@H](Cc1ccc(O)cc1)C(N)=O)[C@@H](C)O)C(C)C
- Ki: 2.55 nM

B3: Compound 179 (peptide)
peptide: Isovaleryl-APAK([AEEA-AEEA-γGlu-C18 diacid])PEEDASPAELQRYYVSLRHYYNWLTRQRY-NH2
SMILES: CC(C)CC(=O)N[C@@H](C)C(=O)N1CCC[C@H]1C(=O)N[C@@H](C)C(=O)N[C@@H](CCCCNC(=O)COCCOCCNC(=O)COCCOCCNC(=O)CC[C@H](NC(=O)CCCCCCCCCCCCCCCCC(=O)O)C(=O)O)C(=O)N1CCC[C@H]1C(=O)N[C@@H](CCC(=O)O)C(=O)N[C@@H](CCC(=O)O)C(=O)N[C@@H](CC(=O)O)C(=O)N[C@@H](C)C(=O)N[C@@H](CO)C(=O)N1CCC[C@H]1C(=O)N[C@@H](C)C(=O)N[C@@H](CCC(=O)O)C(=O)N[C@@H](CC(C)C)C(=O)N[C@@H](CCC(N)=O)C(=O)N[C@@H](CCCNC(=N)N)C(=O)N[C@@H](Cc1ccc(O)cc1)C(=O)N[C@@H](Cc1ccc(O)cc1)C(=O)N[C@H](C(=O)N[C@@H](CO)C(=O)N[C@@H](CC(C)C)C(=O)N[C@@H](CCCNC(=N)N)C(=O)N[C@@H](Cc1c[nH]cn1)C(=O)N[C@@H](Cc1ccc(O)cc1)C(=O)N[C@@H](Cc1ccc(O)cc1)C(=O)N[C@@H](CC(N)=O)C(=O)N[C@@H](Cc1c[nH]c2ccccc12)C(=O)N[C@@H](CC(C)C)C(=O)N[C@H](C(=O)N[C@@H](CCCNC(=N)N)C(=O)N[C@@H](CCC(N)=O)C(=O)N[C@@H](CCCNC(=N)N)C(=O)N[C@@H](Cc1ccc(O)cc1)C(N)=O)[C@@H](C)O)C(C)C
- Ki: 1 nM

B4: Compound 178 (peptide)
peptide: Isovaleryl-APEK([AEEA-AEEA-γGlu-C18 diacid])PEEDATPEETERYYVSLRHYYNWLTRQRY-NH2
SMILES: CC(C)CC(=O)N[C@@H](C)C(=O)N1CCC[C@H]1C(=O)N[C@@H](CCC(=O)O)C(=O)N[C@@H](CCCCNC(=O)COCCOCCNC(=O)COCCOCCNC(=O)CC[C@H](NC(=O)CCCCCCCCCCCCCCCCC(=O)O)C(=O)O)C(=O)N1CCC[C@H]1C(=O)N[C@@H](CCC(=O)O)C(=O)N[C@@H](CCC(=O)O)C(=O)N[C@@H](CC(=O)O)C(=O)N[C@@H](C)C(=O)N[C@H](C(=O)N1CCC[C@H]1C(=O)N[C@@H](CCC(=O)O)C(=O)N[C@@H](CCC(=O)O)C(=O)N[C@H](C(=O)N[C@@H](CCC(=O)O)C(=O)N[C@@H](CCCNC(=N)N)C(=O)N[C@@H](Cc1ccc(O)cc1)C(=O)N[C@@H](Cc1ccc(O)cc1)C(=O)N[C@H](C(=O)N[C@@H](CO)C(=O)N[C@@H](CC(C)C)C(=O)N[C@@H](CCCNC(=N)N)C(=O)N[C@@H](Cc1c[nH]cn1)C(=O)N[C@@H](Cc1ccc(O)cc1)C(=O)N[C@@H](Cc1ccc(O)cc1)C(=O)N[C@@H](CC(N)=O)C(=O)N[C@@H](Cc1c[nH]c2ccccc12)C(=O)N[C@@H](CC(C)C)C(=O)N[C@H](C(=O)N[C@@H](CCCNC(=N)N)C(=O)N[C@@H](CCC(N)=O)C(=O)N[C@@H](CCCNC(=N)N)C(=O)N[C@@H](Cc1ccc(O)cc1)C(N)=O)[C@@H](C)O)C(C)C)[C@@H](C)O)[C@@H](C)O
- Ki: 2.05 nM

B5: Compound 180 (peptide)
peptide: Isovaleryl-APEK([AEEA-AEEA-γGlu-C18 diacid])PEEDASPEETQQYYVSLRHYYNWLTRQRY-NH2
SMILES: CC(C)CC(=O)N[C@@H](C)C(=O)N1CCC[C@H]1C(=O)N[C@@H](CCC(=O)O)C(=O)N[C@@H](CCCCNC(=O)COCCOCCNC(=O)COCCOCCNC(=O)CC[C@H](NC(=O)CCCCCCCCCCCCCCCCC(=O)O)C(=O)O)C(=O)N1CCC[C@H]1C(=O)N[C@@H](CCC(=O)O)C(=O)N[C@@H](CCC(=O)O)C(=O)N[C@@H](CC(=O)O)C(=O)N[C@@H](C)C(=O)N[C@@H](CO)C(=O)N1CCC[C@H]1C(=O)N[C@@H](CCC(=O)O)C(=O)N[C@@H](CCC(=O)O)C(=O)N[C@H](C(=O)N[C@@H](CCC(N)=O)C(=O)N[C@@H](CCC(N)=O)C(=O)N[C@@H](Cc1ccc(O)cc1)C(=O)N[C@@H](Cc1ccc(O)cc1)C(=O)N[C@H](C(=O)N[C@@H](CO)C(=O)N[C@@H](CC(C)C)C(=O)N[C@@H](CCCNC(=N)N)C(=O)N[C@@H](Cc1c[nH]cn1)C(=O)N[C@@H](Cc1ccc(O)cc1)C(=O)N[C@@H](Cc1ccc(O)cc1)C(=O)N[C@@H](CC(N)=O)C(=O)N[C@@H](Cc1c[nH]c2ccccc12)C(=O)N[C@@H](CC(C)C)C(=O)N[C@H](C(=O)N[C@@H](CCCNC(=N)N)C(=O)N[C@@H](CCC(N)=O)C(=O)N[C@@H](CCCNC(=N)N)C(=O)N[C@@H](Cc1ccc(O)cc1)C(N)=O)[C@@H](C)O)C(C)C)[C@@H](C)O
- Ki: 3.85 nM
